Fewer inactive variants are shown than the library holds.
B1: TPR 5TU (parent)
chain: GGAUCUUCUCGAUCUAACAAAAAAGACAAAUCUGCCACAAAGCUUGAGAGCAUCUUCGGAUGCAGAGGCGGCAGCCUUCGGUGGCGCGAUAGCGCCAACGUUCUCAACUAUGACACGCAAAACGCGUGCUCCGUUGAAUGGAGUUUAUCAUG

Variants of: B1
Test: polymerase ribozyme fitness, log enrichment relative to wild type (log ratio); higher = more active; in vitro selection for triplet polymerase activity
How it was run: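 Mutant libraries of both subunits of a heterodimeric triplet polymerase ribozyme were PCR-built, transcribed, and selected once in triplicate, with frozen incubation at −7 °C and capture of gel-excised extended constructs on streptavidin beads before RT-PCR. Illumina sequencing of input and output libraries was filtered to genotypes with ≥10 input reads and ≥1 read per output. Fitness is the logarithm of genotype enrichment over wild-type enrichment, using inverse-variance-weighted replicate averages. The logarithm is base 2.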

Point of comparison: GGAUCUUCUCUAUCUAACAAAAAAGACAAAUCUGCCACAAAGCUUGAGAGCAUCUUCGGAUGCAGAGGUGGCAGCCUUCGGUGGCGCGAUAGCGCCAACGUUCUCAACUAUGACACGCAAAACGCGUGCUCCGCUGAAUGGAGUUUAUCAUG [G11U C69U U134C], “polymerase ribozyme fitness (log ratio)” value -1.33. Against it:
- GGAUCUUCUCGCUCUAACACAAAAGGCAAAUCUGCCACAAAGCUUGAGAGCAUCUUCGGAUGCAGAGGCGGCAGCCUUCGGUGGCGCGAUAGCGCCAACGUUCUCAACUAUGACACGCAAAACGCGUGCUCCGUUGAAUGGAGUUUAUCAUG [A12C A20C A26G] — lower, ≤ -4.2
- GGAUCUUCUCUAUCUAACAAAAAAGACAAAUCUGCCACAAAGCUUGAGAGCAACUUCGGAUGCAGAGGCGGCAGCCUUCGGUGGCGCGAUAGCGCCAACGUUCUCAACUAUGACACGCAAAACGCGUGCUCUGUUGAAUGGAGUUGAUCAUG [G11U U53A C132U U146G] — lower, -3.51
- GGAUCUUCUCUAUCUAACAAAAAAGACAAAUCUGCCACAAAGCUUGAGAGCAUCUUCGGAUGCAGAGGCGGCAGCCUUCGGUGACGCGAUAGCGCCAACGUUCUCAACUAUGACACGCAAAACGCGUGCUCCGUUGAAUGGAGUUUAUCAUG [G11U G84A] — higher, -0.536
- GGAUCUUCUCUAUCUAACAAAAAAGACAAAUCUGCCACAAAGCUUGAGAGCAUCUUCGGAUGCAGAGGCGGCAGCCUUCGGUGGCGCGAUAGCGCCAACGUUCGCAACUAUGACACGCAAAACGCGUGCUCCGUUGAAUGGAGUUUAUCAUG [G11U U104G] — lower, -1.58
- GGAUCUUCUCGCUCUUACAAAAAAGACAAAUCUGCCACAAAGCUUGAGAGCAUCUUCGGAUGCAGAGGCGGCAGCCUUCGGUGGCGCGAUAGCGCCAACGUUCUCAACUAUGACACGCAAAACGCGUGCUCCGUUGAAUGGAGUGUAUCAUG [A12C A16U U145G] — lower, -2.26
- GGAUCUUCUCUAUCUAACAAAAAAGACAAAUCUGCCACAAAGCUUGCGAUCAUCUUGGGAUGCUGAGGCGGCAGCGUUCGGUGGCGCGAUAGCGCCAACGUUCUCAACUAUGACACGCAAAACGCGUGCUCCGUUGAAUGGAGUUUAUCAUG [G11U A47C G50U C57G A64U C76G] — lower, ≤ -4.2
- GGAUCUUCUCUAUGUAACAAAAAAGACAAAUCUGCCACAAAGCUUAAGAGCAUCAUCGGAUGCAGAGGCGGCAGCCUUCGGUGGCGUGAUAGCGCCAACGUUCUCAACUAUGACACGCAAAACGCGUGCUCCGUUGAAUGGAGUUUAUCAUG [G11U C14G G46A U55A C87U] — lower, ≤ -4.2
- GGAUCUUCUCGCUCUAACAAAAAAGACAAAUCUGCCCCAAAGCUUGAGAGCACCUUCGGAUGCAGAGGCGGCAGCCUUCGGUGGCUCGAUAGCGCCGACGUUCUCAACUAUGUCACGCAAAACGCGUGCUCCGUUGAAUGGAGUUUAUCAUG [A12C A37C U53C G86U A97G A113U] — lower, ≤ -4.2
- GGAUCUUCUCUAUCUAACAAAAAAGACAAAUCUGCCACUAAGCUUGAGAGCAUCUUUGGAUGCAGAGGCAGCAGCCUUCGGUGGCGCGAUAGCGCCAACGGUCUCAACUAUGACACGCAAAACGCGUGCUCCGUUGAAUGGAGUUUAUCAUG [G11U A39U C57U G70A U101G] — lower, ≤ -4.2
- GGAUCUUCUCUAUCUAACAAAAAAGACAAAUCUGCCAUAAAGCUUGAGAGCAUCUUCCGAUGCAGAGGCGGCAGCCUUCGGUGGCGCGAUAGCGCUAGCGUUCUCAACUAUGACACGCAAAACGCGUGCUCCGUUGAAUGGAGUUUAUCAUG [G11U C38U G58C C96U A98G] — within 0.2 log units, -1.45
- GGAUCUUCUCUAUCUAACAAAAAAGACAAAUCUGCCACAAAACUUGAGAACAUAUUCGGAUGCAGAGGCGGCAGCCUUCGGUGGCGCGAUAGCGUCAACGUUCUCAACUAUGACACGCAAAACACGUGCUCCGUUGAAUGGAGUUUAUCAUG [G11U G42A G50A C54A C95U G124A] — lower, ≤ -4.2
- GGAUCUUCUCUAUCUAACAAAAAAGACAAAUCUGCCACAAAGCUUGAGAGCAUCUUCGGAUGCAGAGGCGGCAGCCUUCGGUGGCGCGAUAGGGCCAACGUUCUCAACUAUGACACGCAAAACGCGUGCUCCGUUGAAUGGAGUUUAUCAUG [G11U C93G] — lower, -3.88
- GGAUCUUCUCUAGCUAACAAAAAAGACAAAUCUGCCACAAAGCUUGAGAGCAUCUUCGGAUUCAGAGGUGGCAGCCUUCGAUGGCGUGAUAGCGCCAACGUUCUCAACUAUGACACGCAAAACGCGUGCUCCGUUGAAUGGAGUUUAUCAUG [G11U U13G G62U C69U G81A C87U] — lower, ≤ -4.2
- GGAUCUUCUCUAUCUAAUAAAAAAGACAAAUCUGCCACAAAGCUUGAGAGCAUCUUCGGAUGCAGAGGCGGCAGCCUUCGGUGUCGCGAUAGCGCCAACGUUCUCAACUAUGACACGCAAAACGCGUGCUCCGUUGAAUGGAGUUUAUCAUG [G11U C18U G84U] — lower, -3.2
- GGAUCUUCUCGCUCUAACAAAAAAGACAAGUCUGCCAAAAAGCUUGAGAGAAUCUGCGGAUGCAGAGGCGGCAGCCUUCGGUGGGGCGAUAGCGUCAACGUUCUCGACUAAGACACGCAAAACGCGUGCUCCGUUGAAUGGAGUUUAUCAUG [A12C A30G C38A C51A U56G C85G C95U A106G U111A] — lower, ≤ -4.2
- GGAUCUUCUCGCUCUAACAAAAAUGACAAAUCUGCCGCAAAGCUUGAGAGCCUCUUCGGAUGCAGAGGCGGCAGUCUUCGGUGGCGCGAUAGUGCCAACGUUCUCAACUAUGACACGCAAAACGCGUGCUCCGUUGAAUGGAGUUUAUCAUG [A12C A24U A37G A52C C75U C93U] — lower, ≤ -4.2
- GGAUCUUCUCUAUCUAACAAAAAAGACAAAUCUGUCACAAAGCUUGAGAGUAUCGUCGUAUGCAGAGACGGCAGCCUUCAGUAGCGCGAUAGCGCCAACGUUCUCAACUAUGACACGCAAAACGCGUGCUCCGUUGAAUGGAGUUUAUCAUG [G11U C35U C51U U55G G59U G68A G80A G83A] — lower, ≤ -4.2
- GGAUCUUCUCGCUCUAACAUAAAAGACAAAUCUGCCACAAAGCUUGAGAGCAUCUUCGGAUGCAGAGGCGGCAGCCUUUGGUGUCGCGAUAGCGCCAACGUUCUCAACUAUGACACGCAAAACGCGUGCUCCGUUGAAUGGAGUUUAUCAUG [A12C A20U C79U G84U] — lower, ≤ -4.2

From the RNAGym collection of RNA variant scans (doi:10.1073/pnas.2313332121)
